According to patent publication US20120071422A1 (MEDICAL DIAGNOSTIC LABORATORIES, published 2012):

T1: recombinant IL-12 (p35 + p40) (UniProt P29459 23-219; P29460 23-328)
T1 sequence (looked up) 1: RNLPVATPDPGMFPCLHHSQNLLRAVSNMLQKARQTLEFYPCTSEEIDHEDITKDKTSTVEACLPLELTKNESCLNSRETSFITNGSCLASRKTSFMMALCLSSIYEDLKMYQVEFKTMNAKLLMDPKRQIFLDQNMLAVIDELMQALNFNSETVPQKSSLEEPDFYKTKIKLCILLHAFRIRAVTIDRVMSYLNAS
T1 sequence (looked up) 2: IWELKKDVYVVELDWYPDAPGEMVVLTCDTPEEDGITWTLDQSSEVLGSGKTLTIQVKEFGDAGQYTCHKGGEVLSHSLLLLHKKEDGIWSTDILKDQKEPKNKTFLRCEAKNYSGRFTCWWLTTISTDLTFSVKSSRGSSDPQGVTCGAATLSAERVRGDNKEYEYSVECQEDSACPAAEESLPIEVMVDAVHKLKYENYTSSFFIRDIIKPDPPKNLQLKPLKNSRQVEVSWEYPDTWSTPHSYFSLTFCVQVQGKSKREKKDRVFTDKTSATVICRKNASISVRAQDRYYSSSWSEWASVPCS

B1: recombinant human IL-23 cytokine (p19 + p40) (ligand)
chain 1: RAVPGGSSPAWTQCQQLSQKLCTLAWSAHPLVGHMDLREEGDEETTNDVPHIQCGDGCDPQGLRDNSQFCLQRIHQGLIFYEKLLGSDIFTGEPSLLPDSPVGQLHASLLGLSQLLQPEGHHWETQQIPSLSPSQPWQRLLLRFKILRSLQAFVAVAARVFAHGAATLSP
chain 2: T1 sequence (looked up) 2
notes: Disulfide-linked heterodimer
B2: recombinant Δ8,9 protein (soluble truncated human IL-23Rα, exon 8 and 9 deletion splice variant), C-terminal Flag tag (receptor)
chain: GITNINCSGHIWVEPATIFKMGMNISIYCQAAIKNCQPRKLHFYKNGIKERFQITRINKTTARLWYKNFLEPHASMYCTAECPKHFQETLICGKDISSGYPPDIPDEVTCVIYEYSGNMTCTWNAGKLTYIDTKYVVHVKSLETEEEQQYLTSSYINISTDSLQGGKKYLVWVQAANALGMEESKQLQIHLDDIVIPSAAVISRAETINATVPKTIIYWDSQTTIEKVSCEMRYKATTNQTWNVKEFDTNFTYVQQSEFYLEPNIKYVFQVRCQETGKRYWQPWSSLFFHKTPETGLKEGSYC
notes: not shown: C-terminal Flag tag
B3: recombinant Δ9 protein (soluble truncated human IL-23Rα, exon 9 deletion splice variant), C-terminal Flag tag (receptor)
chain: GITNINCSGHIWVEPATIFKMGMNISIYCQAAIKNCQPRKLHFYKNGIKERFQITRINKTTARLWYKNFLEPHASMYCTAECPKHFQETLICGKDISSGYPPDIPDEVTCVIYEYSGNMTCTWNAGKLTYIDTKYVVHVKSLETEEEQQYLTSSYINISTDSLQGGKKYLVWVQAANALGMEESKQLQIHLDDIVIPSAAVISRAETINATVPKTIIYWDSQTTIEKVSCEMRYKATTNQTWNVKEFDTNFTYVQQSEFYLEPNIKYVFQVRCQETGKRYWQPWSSLFFHKTPETVPQVTSKAFQHDTWNSGLTVASISTGHLTSGLKEGSYC
modifications: N-glycosylated (sites not given)
notes: Said to be a monomer; also called Δ9 variant; Δ9 IL-23Rα; not shown: C-terminal Flag tag

Legend:
[1] = target: T2, recombinant human His-tagged soluble IL-12Rβ1 (human, UniProt P42701 24-545, limits assumed); test: anti-Flag immunoprecipitation of Δ9 with IL-23 (200 ng) and sIL-12Rβ1 (1 µg); IL-23 bound to Δ9
T2 construct: Bought (R&D Systems); also called sIL-12Rβ1; shIL-12Rβ1; not shown: His tag
Protocol: Human IL12Rβ1 also partners with human IL12Rβ2 to form the cell-surface IL-12 receptor. We wanted to know whether Δ9 could link to human IL-12Rβ1 via IL-23, or indeed bind it directly.
(§1) Culture medium from Δ9 transfection experiments was concentrated using Amicon ultra centrifugal filter 30K (Millipore), then Δ9 protein was affinity purified using anti-FLAG M2 affinity gel (Sigma). The immuno-complex was precipitated, washed and resuspended in PBS. 200 ng of either IL-12 or IL-23 was added to the suspension and incubated at 4° C. for 2 hours. Reprecipitated FLAG-tagged Δ9 immuno-complex was again precipitated and eluted with excess FLAG peptide. The eluted product was analysed by immunoblot using anti-human p40 or anti-human IL-23R to detect the common p40 subunit of IL-12/IL-23 or Δ9, respectively. […] After extensive washing, the eluted product was analysed using anti-HIS (Invitrogen, Carlsbad Calif.), anti-human p40 or anti-human IL-23R(R&D Systems) to detect soluble IL-12Rβ1, the p40 subunit of IL-23 or Δ9, respectively. To examine the N-glycosylation modification on soluble human IL-23Rα, purified Δ9 was treated with N-Glycosidase F (PNGase F) at 37° C. for 1 hour followed by immunoblotting using anti-human IL-23R. […] Immuno-precipitation was performed and analysed by immunoblot, probing with anti-hIL-12/23p40.

[2] = target: B1; test: immunoprecipitation and competitive ELISA
Protocol: We developed a competitive ELISA to further examine the ability of the deletion protein mutants (i.e., Δ9, Δ8,9 and 1-250 mutant) to compete (i.e., interfere) the binding of IL-23 cytokine to the full-length extracellular domain of IL-23Rα (See, “Materials & Methods”). Recombinant IL-23Rα-Fc fusion protein from R&D (2 μg/ml) was coated on the ELISA plate. IL-23 cytokine (50 ng) was added in the absence or presence of the deletion protein mutants as competitors.
Recombinant human IL-23R-Fc (2 μg/ml) (from R&D) was coated onto plates as a capture reagent. Biotinylated anti-p40 antibody (1:250) (which specifically recognizes the p40 subunit of IL-23) was used as a detection antibody. Streptavidin—horseradish peroxidase (HRP) (1:500) was added to detect the biotinlyated anti-p40 antibody. The peroxidase activity (representing the level of IL-23 captured onto plates) was measured by addition of a tetramethylbenzidine (TMB) substrate (100 μl/well). The color intensity was directly proportion to the amount of the bound IL-23 protein. The color was measured at optical density (OD) 450 nm using a microtiter plate reader.

[3] = target: T1, recombinant IL-12 (p35 + p40); test: anti-Flag immunoprecipitation, anti-hIL-12/23 p40 immunoblot
Protocol: FIG. 17 depicts the binding specificity of the recombinant Δ9 protein. Immunoprecipitation experiments were performed using anti-Flag M2 affinity gel. Immunoblot experiment was performed to detect IL-12 and IL-23 in the precipitates using the anti-hIL-12/23 p40 (i.e., anti-human IL-12/23 p40). The recombinant Δ9 protein in the precipitates was detected by anti-human IL-23R. Only IL-23 but not IL-12 was detected in the reaction containing the recombinant Δ9 protein.
as §1, with “Reprecipitated FLAG-tagged Δ9 immuno-complex was again precipitated and eluted with excess FLAG peptide.” left out, “respectively.” for “respectively. To examine the N-glycosylation modification on soluble human IL-23Rα, purified Δ9 was treated with N-Glycosidase F (PNGase F) at 37° C. for 1 hour followed by immunoblotting using anti-human IL-23R.”

[4] = target: T2, recombinant human His-tagged soluble …; test: anti-Flag immunoprecipitation without IL-23, anti-His immunoblot
Excerpt: On the cell surface, human IL-23Rα combines with human IL-12Rβ1 to form the heterodimeric IL-23 receptor. Human IL12Rβ1 also partners with human IL12Rβ2 to form the cell-surface IL-12 receptor. We wanted to know whether Δ9 could link to human IL-12Rβ1 via IL-23, or indeed bind it directly.
as §1, with “respectively.” for “respectively. To examine the N-glycosylation modification on soluble human IL-23Rα, purified Δ9 was treated with N-Glycosidase F (PNGase F) at 37° C. for 1 hour followed by immunoblotting using anti-human IL-23R.”

[5] = target: B1; test: anti-Flag immunoprecipitation, anti-p40 immunoblot
Protocol: 200 ng of human IL-23 cytokine was added to the immunoprecipitation reaction. The presence of IL-23 in the precipitate was examined by immunoblot using anti-hIL-12/23 p40 antibody.
In addition, we also prepared two (2) more IL-23Rα deletion mutants; namely, 1-250 mutant and 1-200 mutant. These deletion mutants were generated by PCR (See, FIG. 18). Together, all of the four (4) IL-23Rα protein variants (FIG. 18) were tagged with Flag sequence at the C-terminus. […] The culture media were collected 48 hours post-transfection. These four (4) deletion proteins were immunoprecipitated using anti-Flag affinity gel. 200 ng of IL-23 cytokine was added to the immunoprecipitation assay. […] We speculate that the 1-200 mutant may be improperly folded or missing a critical domain that is essential for binding to IL-23 cytokine. […]
Culture medium from Δ9 transfection experiments was concentrated using Amicon ultra centrifugal filter 30K (Millipore), then Δ9 protein was affinity purified using anti-FLAG M2 affinity gel (Sigma). […] The eluted product was analysed by immunoblot using anti-human p40 or anti-human IL-23R to detect the common p40 subunit of IL-12/IL-23 or Δ9, respectively. […] After extensive washing, the eluted product was analysed using anti-HIS (Invitrogen, Carlsbad Calif.), anti-human p40 or anti-human IL-23R(R&D Systems) to detect soluble IL-12Rβ1, the p40 subunit of IL-23 or Δ9, respectively.

Binder: B1
binding result [1]: binds

Binder: B2
binding result [2]: binds

Binder: B3
binding result [3]: no binding (tested: 200 ng) | binding result [4]: no binding (tested: 1 µg) | binding result [5]: binds
